25 molecules from US20170044259A1 (CYTOMX THERAPEUTICS, published 2017) can be followed below.

Numbering of substitutions follows the chain as printed.

The target in experiment [1] is T1, human PD-1-Fc (R and D systems, Minneapolis, Minn.) (human, UniProt Q15116 25-167).
T1 construct: bought; also called hPD-1-Fc; hPD-1; not shown: Fc part of the bought fusion
In words: plate ELISA on human PD-1-Fc; reference A1.5.

Experiment [2] addresses T1, human PD-1-Fc (R and D systems, …). Description: plate ELISA on human PD-1-Fc; apparent KD. In general terms: An ELISA detects its analyte on a solid surface through an enzyme-linked reagent.
The next experiment concerns the target T2, J43v2 mIgG2a.
T2 construct: also called J43 m2a; J43v2 m2a
Description: bacterial display clone with DyLight 650 labeled J43v2 m2a.

T1 sequence (Q15116 25-167 limits assumed): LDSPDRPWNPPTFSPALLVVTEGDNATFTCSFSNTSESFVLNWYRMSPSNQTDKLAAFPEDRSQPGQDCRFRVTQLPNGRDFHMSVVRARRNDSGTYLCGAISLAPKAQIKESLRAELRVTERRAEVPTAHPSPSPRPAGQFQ
T2 sequence (VH, as listed by the source, chain 1 of 2): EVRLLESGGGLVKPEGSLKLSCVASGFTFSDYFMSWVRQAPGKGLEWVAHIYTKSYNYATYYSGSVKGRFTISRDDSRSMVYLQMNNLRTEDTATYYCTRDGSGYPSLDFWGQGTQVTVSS
T2 sequence (VL, as listed by the source, chain 2 of 2): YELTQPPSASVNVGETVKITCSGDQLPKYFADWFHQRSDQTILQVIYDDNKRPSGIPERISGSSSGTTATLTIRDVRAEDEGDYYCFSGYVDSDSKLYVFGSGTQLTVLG

B1: PD-1 1.5 PD005 2001 (antibody, human IgG4 S228P, kappa)
heavy: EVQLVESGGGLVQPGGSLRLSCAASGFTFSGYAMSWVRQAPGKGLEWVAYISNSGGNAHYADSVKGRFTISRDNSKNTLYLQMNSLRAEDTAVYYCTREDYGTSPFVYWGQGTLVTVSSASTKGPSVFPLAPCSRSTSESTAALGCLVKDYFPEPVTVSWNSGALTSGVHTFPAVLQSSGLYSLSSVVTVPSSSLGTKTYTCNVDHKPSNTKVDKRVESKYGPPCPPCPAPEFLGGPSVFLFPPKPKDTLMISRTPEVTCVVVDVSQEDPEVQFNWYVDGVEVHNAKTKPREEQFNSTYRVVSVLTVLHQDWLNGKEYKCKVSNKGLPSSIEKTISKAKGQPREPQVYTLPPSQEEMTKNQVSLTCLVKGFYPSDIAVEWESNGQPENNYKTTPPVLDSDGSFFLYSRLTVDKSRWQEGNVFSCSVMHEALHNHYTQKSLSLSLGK
light: QGQSGQGMLVCSLQPTAMCERVGGGSSGGSISSGLLSGRSDNHGGGSDIQLTQSPSSLSASVGDRVTITCRASESVDAYGISFMNWFQQKPGKAPKLLIYAASNQGSGVPSRFSGSGSGTDFTLTISSMQPEDFATYYCQQSKDVPWTFGQGTKLEIKRTVAAPSVFIFPPSDEQLKSGTASVVCLLNNFYPREAKVQWKVDNALQSGNSQESVTEQDSKDSTYSLSSTLTLSKADYEKHKVYACEVTHQGLSSPVTKSFNRGEC
Regarding B1, in experiment [1], the “Masking Efficiency” value turned out to be 38. Besides, the Kd in experiment [2] was 68 nM.

B2: PD-1 1.5 PD011 2001 (antibody, human IgG4 S228P, kappa)
heavy: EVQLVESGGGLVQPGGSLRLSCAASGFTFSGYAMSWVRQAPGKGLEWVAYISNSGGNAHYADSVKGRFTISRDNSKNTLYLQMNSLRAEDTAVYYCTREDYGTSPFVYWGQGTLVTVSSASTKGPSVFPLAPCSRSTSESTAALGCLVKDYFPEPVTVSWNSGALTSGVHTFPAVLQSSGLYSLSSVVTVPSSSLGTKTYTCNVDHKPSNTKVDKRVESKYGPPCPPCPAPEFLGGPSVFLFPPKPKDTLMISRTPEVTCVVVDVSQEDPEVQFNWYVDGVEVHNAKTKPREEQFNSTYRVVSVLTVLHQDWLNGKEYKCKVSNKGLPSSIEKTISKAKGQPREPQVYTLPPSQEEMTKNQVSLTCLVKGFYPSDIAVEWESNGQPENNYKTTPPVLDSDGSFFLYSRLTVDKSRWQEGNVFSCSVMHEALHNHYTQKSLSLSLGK
light: B1 light with M8V, L9P, V10W, S12Q, Q14T, T16R, A17V, E20M, R21W, V22A
As to B2, the “Masking Efficiency” value in experiment [1] turned out to be 37. For the same molecule, in experiment [2], the Kd was 67 nM.

B3: masking moiety MP003 (peptide)
peptide: TNIWSCQTYCDHKHK
notes: bacterial display clone; also called MP03
As to B3, in the experiment with J43v2 mIgG2a, the binding result is given as “binds”.

B4: PD-1 1.5 PD022 2001 (antibody, human IgG4 S228P, kappa)
heavy: not shown
light: QGQSGQGFYCTYLVSLTCHPQGGGSSGGSISSGLLSGRSDNHGGGSDIQLTQSPSSLSASVGDRVTITCRASESVDAYGISFMNWFQQKPGKAPKLLIYAASNQGSGVPSRFSGSGSGTDFTLTISSMQPEDFATYYCQQSKDVPWTFGQGTKLEIKRTVAAPSVFIFPPSDEQLKSGTASVVCLLNNFYPREAKVQWKVDNALQSGNSQESVTEQDSKDSTYSLSSTLTLSKADYEKHKVYACEVTHQGLSSPVTKSFNRGEC
B4: the “Masking Efficiency” value in experiment [1] was found to be 23. Also, the Kd in experiment [2] was 41 nM.

B5: PD-1 1.5 PD024 2001 (antibody, human IgG4 S228P, kappa)
heavy: not shown
light: QGQSGQGIYSCYMFASRCTSDKGGGSSGGSISSGLLSGRSDNHGGGSDIQLTQSPSSLSASVGDRVTITCRASESVDAYGISFMNWFQQKPGKAPKLLIYAASNQGSGVPSRFSGSGSGTDFTLTISSMQPEDFATYYCQQSKDVPWTFGQGTKLEIKRTVAAPSVFIFPPSDEQLKSGTASVVCLLNNFYPREAKVQWKVDNALQSGNSQESVTEQDSKDSTYSLSSTLTLSKADYEKHKVYACEVTHQGLSSPVTKSFNRGEC
With B5, in experiment [1], the “Masking Efficiency” value stood at 51. Also, the Kd in experiment [2] was 92 nM.

B6: PD-1 1.5 PD018 2001 (antibody, human IgG4 S228P, kappa)
heavy: not shown
light: B5 light with I8A, Y9P, S10R, R17Y, T19K, D21Q, K22Y
Consider B6, for which the “Masking Efficiency” value in experiment [1] turned out to be 42. In addition, in experiment [2], the Kd was 75 nM.

B7: masking moiety MP007 (peptide)
peptide: TIPRCGQHPKCKDTL
notes: bacterial display clone; also called MP07
Consider B7, for which, in the experiment with J43v2 mIgG2a, the binding result was “binds”.

B8: masking moiety MP005 (peptide)
peptide: PGNCHPMQKEMCQFI
notes: bacterial display clone; also called MP05
B8: the binding result with J43v2 mIgG2a is listed as “binds”.

B9: PD-1 1.5 PD015 2001 (antibody, human IgG4 S228P, kappa)
heavy: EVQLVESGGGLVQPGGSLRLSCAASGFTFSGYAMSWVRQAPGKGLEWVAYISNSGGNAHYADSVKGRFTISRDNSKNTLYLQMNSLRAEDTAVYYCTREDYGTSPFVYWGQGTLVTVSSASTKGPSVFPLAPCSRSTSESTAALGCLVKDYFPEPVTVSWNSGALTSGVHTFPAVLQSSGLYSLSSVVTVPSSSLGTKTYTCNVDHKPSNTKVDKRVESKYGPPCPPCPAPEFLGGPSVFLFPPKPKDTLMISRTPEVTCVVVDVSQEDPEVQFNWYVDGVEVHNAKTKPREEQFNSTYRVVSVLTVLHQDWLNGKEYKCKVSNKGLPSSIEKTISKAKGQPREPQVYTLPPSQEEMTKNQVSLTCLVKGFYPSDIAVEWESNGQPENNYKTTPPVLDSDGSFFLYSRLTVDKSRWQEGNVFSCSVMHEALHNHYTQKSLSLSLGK
light: QGQSGQGVSYCTWLIEVTCLRGGGGSSGGSISSGLLSGRSDNHGGGSDIQLTQSPSSLSASVGDRVTITCRASESVDAYGISFMNWFQQKPGKAPKLLIYAASNQGSGVPSRFSGSGSGTDFTLTISSMQPEDFATYYCQQSKDVPWTFGQGTKLEIKRTVAAPSVFIFPPSDEQLKSGTASVVCLLNNFYPREAKVQWKVDNALQSGNSQESVTEQDSKDSTYSLSSTLTLSKADYEKHKVYACEVTHQGLSSPVTKSFNRGEC
Consider B9, for which the “Masking Efficiency” value in experiment [1] was 65. Also, the Kd in experiment [2] is 117 nM.

B10: masking moiety MP001 (peptide)
peptide: DYTYCRWVNWCLSGV
notes: bacterial display clone; also called MP01; MP-01
Regarding B10, the binding result with J43v2 mIgG2a is reported as “binds”.

B11: PD-1 1.5 PD021 2001 (antibody, human IgG4 S228P, kappa)
heavy: not shown
light: QGQSGQGLSVECYVFSRCSSLPGGGSSGGSISSGLLSGRSDNHGGGSDIQLTQSPSSLSASVGDRVTITCRASESVDAYGISFMNWFQQKPGKAPKLLIYAASNQGSGVPSRFSGSGSGTDFTLTISSMQPEDFATYYCQQSKDVPWTFGQGTKLEIKRTVAAPSVFIFPPSDEQLKSGTASVVCLLNNFYPREAKVQWKVDNALQSGNSQESVTEQDSKDSTYSLSSTLTLSKADYEKHKVYACEVTHQGLSSPVTKSFNRGEC
Consider B11, for which the “Masking Efficiency” value in experiment [1] was found to be 27. The Kd in experiment [2] came to 49 nM.

B12: masking moiety MP002 (peptide)
peptide: ILCPEDPWGHKCKLP
notes: bacterial display clone; also called MP02; MP-02
Take B12: the binding result with J43v2 mIgG2a is listed as “binds”.

B13: A1.5 (antibody, human IgG4 S228P, kappa)
heavy: not shown
light: DIQLTQSPSSLSASVGDRVTITCRASESVDAYGISFMNWFQQKPGKAPKLLIYAASNQGSGVPSRFSGSGSGTDFTLTISSMQPEDFATYYCQQSKDVPWTFGQGTKLEIKRTVAAPSVFIFPPSDEQLKSGTASVVCLLNNFYPREAKVQWKVDNALQSGNSQESVTEQDSKDSTYSLSSTLTLSKADYEKHKVYACEVTHQGLSSPVTKSFNRGEC
notes: humanized, full length hIgG4/hKappa; also called A1.5 Ab
For the molecule B13, in experiment [2], the Kd was determined as 1.8 nM.

B14: masking moiety MP004 (peptide)
peptide: SDHKCKLQNCMNTKV
notes: bacterial display clone; also called MP04
For B14, the binding result with J43v2 mIgG2a is “binds”.

B15: PD-1 1.5 PD002 2001 (antibody, human IgG4 S228P, kappa)
heavy: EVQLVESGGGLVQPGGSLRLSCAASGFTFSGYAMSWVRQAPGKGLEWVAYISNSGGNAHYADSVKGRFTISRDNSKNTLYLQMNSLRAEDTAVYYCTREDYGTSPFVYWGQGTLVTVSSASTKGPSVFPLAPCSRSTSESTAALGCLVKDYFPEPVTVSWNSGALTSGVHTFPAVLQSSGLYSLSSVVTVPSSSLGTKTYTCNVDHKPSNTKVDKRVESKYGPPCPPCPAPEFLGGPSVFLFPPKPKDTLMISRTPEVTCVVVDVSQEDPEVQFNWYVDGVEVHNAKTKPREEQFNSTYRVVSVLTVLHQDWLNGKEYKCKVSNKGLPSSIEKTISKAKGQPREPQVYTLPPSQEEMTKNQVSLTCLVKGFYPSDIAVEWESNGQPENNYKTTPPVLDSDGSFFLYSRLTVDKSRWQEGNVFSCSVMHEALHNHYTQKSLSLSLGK
light: QGQSGQGDVNCAIWYSVCTTVPGGGSSGGSISSGLLSGRSDNHGGGSDIQLTQSPSSLSASVGDRVTITCRASESVDAYGISFMNWFQQKPGKAPKLLIYAASNQGSGVPSRFSGSGSGTDFTLTISSMQPEDFATYYCQQSKDVPWTFGQGTKLEIKRTVAAPSVFIFPPSDEQLKSGTASVVCLLNNFYPREAKVQWKVDNALQSGNSQESVTEQDSKDSTYSLSSTLTLSKADYEKHKVYACEVTHQGLSSPVTKSFNRGEC
On to B15, for which the “Masking Efficiency” value in experiment [1] stood at 12. Besides, the Kd in experiment [2] stood at 21 nM.

B16: masking moiety MP006 (peptide)
peptide: VEHLCYTHNKCKHPD
notes: bacterial display clone; also called MP06
For B16, the binding result with J43v2 mIgG2a is listed as “binds”.

B17: PD-1 1.5 PD01 2001 (antibody, human IgG4 S228P, kappa)
heavy: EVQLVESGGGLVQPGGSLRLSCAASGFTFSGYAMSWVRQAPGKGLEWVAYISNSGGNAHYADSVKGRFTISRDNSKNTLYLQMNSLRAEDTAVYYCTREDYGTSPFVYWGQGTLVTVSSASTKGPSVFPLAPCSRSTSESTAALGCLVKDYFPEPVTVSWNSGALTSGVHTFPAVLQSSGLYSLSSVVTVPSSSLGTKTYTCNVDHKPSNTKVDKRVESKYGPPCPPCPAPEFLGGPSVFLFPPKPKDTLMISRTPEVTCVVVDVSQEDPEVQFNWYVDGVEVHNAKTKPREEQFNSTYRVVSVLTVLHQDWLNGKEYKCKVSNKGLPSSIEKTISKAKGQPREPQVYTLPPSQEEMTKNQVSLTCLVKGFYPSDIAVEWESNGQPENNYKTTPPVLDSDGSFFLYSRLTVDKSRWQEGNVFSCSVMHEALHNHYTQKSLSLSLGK
light: QGQSGQGAMSGCSWSAFCPYLAGGGSSGGSISSGLLSGRSDNHGGGSDIQLTQSPSSLSASVGDRVTITCRASESVDAYGISFMNWFQQKPGKAPKLLIYAASNQGSGVPSRFSGSGSGTDFTLTISSMQPEDFATYYCQQSKDVPWTFGQGTKLEIKRTVAAPSVFIFPPSDEQLKSGTASVVCLLNNFYPREAKVQWKVDNALQSGNSQESVTEQDSKDSTYSLSSTLTLSKADYEKHKVYACEVTHQGLSSPVTKSFNRGEC
Regarding B17, the “Masking Efficiency” value in experiment [1] was 193. Further, the Kd in experiment [2] came out at 348 nM.

B18: PD-1 1.5 PD010 2001 (antibody, human IgG4 S228P, kappa)
heavy: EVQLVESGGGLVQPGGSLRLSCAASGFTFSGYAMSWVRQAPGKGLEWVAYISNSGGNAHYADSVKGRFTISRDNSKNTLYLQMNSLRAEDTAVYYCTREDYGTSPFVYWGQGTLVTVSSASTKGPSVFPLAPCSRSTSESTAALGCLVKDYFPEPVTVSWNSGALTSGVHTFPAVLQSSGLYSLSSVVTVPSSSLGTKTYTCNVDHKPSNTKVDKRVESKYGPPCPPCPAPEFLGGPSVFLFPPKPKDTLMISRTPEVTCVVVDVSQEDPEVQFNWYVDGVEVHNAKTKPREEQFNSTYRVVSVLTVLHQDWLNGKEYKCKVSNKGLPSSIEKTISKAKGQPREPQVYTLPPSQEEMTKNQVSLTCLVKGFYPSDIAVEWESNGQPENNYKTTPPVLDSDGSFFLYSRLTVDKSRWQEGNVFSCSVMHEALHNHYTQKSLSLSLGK
light: QGQSGQGGLCSWYLSSSGLCVDGGGSSGGSISSGLLSGRSDNHGGGSDIQLTQSPSSLSASVGDRVTITCRASESVDAYGISFMNWFQQKPGKAPKLLIYAASNQGSGVPSRFSGSGSGTDFTLTISSMQPEDFATYYCQQSKDVPWTFGQGTKLEIKRTVAAPSVFIFPPSDEQLKSGTASVVCLLNNFYPREAKVQWKVDNALQSGNSQESVTEQDSKDSTYSLSSTLTLSKADYEKHKVYACEVTHQGLSSPVTKSFNRGEC
For the molecule B18, the “Masking Efficiency” value in experiment [1] was determined as 30. In addition, the Kd in experiment [2] was determined as 54 nM.

B19: PD-1 1.5 PD008 2001 (antibody, human IgG4 S228P, kappa)
heavy: not shown
light: B18 light with G8E, L9T, S11N, W12Q, L14E, S15R, V21F, D22A
Take B19: in experiment [1], the “Masking Efficiency” value is 31. Also, in experiment [2], the Kd is 55 nM.

B20: PD-1 1.5 PD016 2001 (antibody, human IgG4 S228P, kappa)
heavy: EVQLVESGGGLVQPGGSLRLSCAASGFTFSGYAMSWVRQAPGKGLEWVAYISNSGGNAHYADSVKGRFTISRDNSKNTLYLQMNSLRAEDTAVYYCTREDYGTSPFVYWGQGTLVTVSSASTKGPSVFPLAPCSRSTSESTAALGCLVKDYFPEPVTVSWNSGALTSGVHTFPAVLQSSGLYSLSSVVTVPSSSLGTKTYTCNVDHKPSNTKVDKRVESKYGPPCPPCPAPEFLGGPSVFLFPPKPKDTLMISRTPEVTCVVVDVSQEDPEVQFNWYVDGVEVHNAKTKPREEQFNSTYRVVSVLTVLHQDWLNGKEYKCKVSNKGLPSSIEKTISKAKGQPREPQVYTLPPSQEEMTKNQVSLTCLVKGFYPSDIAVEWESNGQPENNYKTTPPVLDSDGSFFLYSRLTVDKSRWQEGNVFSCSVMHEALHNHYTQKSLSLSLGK
light: B18 light with G8V, S11A, W12A, L14A, S15L, L19I, V21G, D22G
Take B20: in experiment [1], the “Masking Efficiency” value was 32. Further, the Kd in experiment [2] stood at 57 nM.

B21: PD-1 1.5 PD013 2001 (antibody, human IgG4 S228P, kappa)
heavy: not shown
light: B18 light with G8S, L9C, C10P, S11L, W12Y, Y13V, L14M, S17F, L19G, V21W
In the case of B21, the “Masking Efficiency” value in experiment [1] was 84. In addition, in experiment [2], the Kd amounted to 151 nM.

B22: PD-1 1.5 PD014 2001 (antibody, human IgG4 S228P, kappa)
heavy: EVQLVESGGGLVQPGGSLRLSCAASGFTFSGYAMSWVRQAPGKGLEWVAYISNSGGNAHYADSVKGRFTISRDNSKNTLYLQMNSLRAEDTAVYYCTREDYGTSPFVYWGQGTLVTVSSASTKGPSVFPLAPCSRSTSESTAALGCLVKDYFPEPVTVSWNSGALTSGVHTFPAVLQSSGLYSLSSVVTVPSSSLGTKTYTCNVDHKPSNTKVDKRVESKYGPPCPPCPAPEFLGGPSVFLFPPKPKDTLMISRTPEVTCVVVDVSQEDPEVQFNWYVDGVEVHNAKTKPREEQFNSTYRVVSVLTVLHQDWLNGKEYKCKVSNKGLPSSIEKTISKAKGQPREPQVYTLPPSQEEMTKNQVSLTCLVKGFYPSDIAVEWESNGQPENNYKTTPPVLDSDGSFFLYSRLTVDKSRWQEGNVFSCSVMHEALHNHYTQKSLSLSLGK
light: B5 light with I8M, Y9S, S10H, Y12W, A15S, R17S, T19D, S20G, D21V
Regarding B22, in experiment [1], the “Masking Efficiency” value is 56. Further, the Kd in experiment [2] was 100 nM.

B23: PD-1 1.5 PD023 2001 (antibody, human IgG4 S228P, kappa)
heavy: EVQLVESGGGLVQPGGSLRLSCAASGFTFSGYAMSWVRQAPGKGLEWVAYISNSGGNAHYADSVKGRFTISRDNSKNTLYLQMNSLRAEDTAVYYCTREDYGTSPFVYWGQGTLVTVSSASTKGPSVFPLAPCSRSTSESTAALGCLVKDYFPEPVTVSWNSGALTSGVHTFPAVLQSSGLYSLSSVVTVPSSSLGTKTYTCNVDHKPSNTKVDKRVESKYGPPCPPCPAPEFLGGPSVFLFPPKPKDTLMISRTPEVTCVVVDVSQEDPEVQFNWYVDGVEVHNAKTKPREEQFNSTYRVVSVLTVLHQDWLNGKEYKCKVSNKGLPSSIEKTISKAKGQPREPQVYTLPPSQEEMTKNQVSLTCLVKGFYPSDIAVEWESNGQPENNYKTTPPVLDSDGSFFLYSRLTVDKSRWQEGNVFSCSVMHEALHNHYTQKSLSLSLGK
light: B17 light with A8S, S10A, S13Q, A16S, P19V, Y20Q, L21R, A22D
B23: the “Masking Efficiency” value in experiment [1] worked out at 17. Also, the Kd in experiment [2] amounted to 31 nM.

B24: PD-1 1.5 PD003 2001 (antibody, human IgG4 S228P, kappa)
heavy: not shown
light: B18 light with G8L, L9V, S11P, W12L, L14A, S15L, L19V, V21M, D22G
In the case of B24, the “Masking Efficiency” value in experiment [1] came out at 61. For the same molecule, the Kd in experiment [2] stood at 109 nM.

B25: PD-1 1.5 PD020 2001 (antibody, human IgG4 S228P, kappa)
heavy: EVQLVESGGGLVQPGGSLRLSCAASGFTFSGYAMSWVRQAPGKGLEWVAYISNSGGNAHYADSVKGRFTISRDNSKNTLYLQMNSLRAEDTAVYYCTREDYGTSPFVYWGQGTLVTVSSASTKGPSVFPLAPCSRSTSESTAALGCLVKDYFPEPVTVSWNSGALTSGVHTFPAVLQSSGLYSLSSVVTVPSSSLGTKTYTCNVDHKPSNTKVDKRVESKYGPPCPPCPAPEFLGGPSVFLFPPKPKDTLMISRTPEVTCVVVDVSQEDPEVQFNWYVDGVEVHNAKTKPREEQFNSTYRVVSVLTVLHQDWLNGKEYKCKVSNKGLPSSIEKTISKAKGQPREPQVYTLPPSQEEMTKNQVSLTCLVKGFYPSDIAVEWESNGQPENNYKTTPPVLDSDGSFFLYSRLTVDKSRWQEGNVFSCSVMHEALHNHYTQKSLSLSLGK
light: B18 light with G8S, L9V, S11P, W12M, L14A, S15L, G18M, V21G, D22A
Regarding B25, in experiment [1], the “Masking Efficiency” value was 43. In addition, the Kd in experiment [2] turned out to be 77 nM.
